Data: US20260209357A1

Experiments:
Assay in all cases: SPR, ligand directly immobilised, soluble Fcγ receptor as analyte, pH 7.3
[1] = target: human FcγRIIB (CD32B) (human) (UniProt P31994)
[2] = target: human FcγRI (CD64) (human) (UniProt P12314)
[3] = target: human FcγRIIIA (CD16a) (human) (UniProt P08637)
human FcγRIIIA (CD16a) (human), sequence (P08637 17-208): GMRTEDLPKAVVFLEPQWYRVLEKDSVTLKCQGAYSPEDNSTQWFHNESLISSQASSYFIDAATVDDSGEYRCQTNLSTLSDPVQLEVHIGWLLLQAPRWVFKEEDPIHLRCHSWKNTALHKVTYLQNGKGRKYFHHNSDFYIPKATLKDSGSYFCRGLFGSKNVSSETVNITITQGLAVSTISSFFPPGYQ

human FcγRI (CD64) (human), sequence (P12314 16-292): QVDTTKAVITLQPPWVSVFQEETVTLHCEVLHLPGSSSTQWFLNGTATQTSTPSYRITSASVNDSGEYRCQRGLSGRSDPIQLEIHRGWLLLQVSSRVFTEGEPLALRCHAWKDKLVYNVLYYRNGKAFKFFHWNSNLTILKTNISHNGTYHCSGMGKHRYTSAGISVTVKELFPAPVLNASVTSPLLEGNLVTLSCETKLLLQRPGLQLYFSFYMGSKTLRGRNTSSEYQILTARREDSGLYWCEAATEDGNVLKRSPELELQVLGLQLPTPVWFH
human FcγRIIB (CD32B) (human), sequence (P31994 43-217): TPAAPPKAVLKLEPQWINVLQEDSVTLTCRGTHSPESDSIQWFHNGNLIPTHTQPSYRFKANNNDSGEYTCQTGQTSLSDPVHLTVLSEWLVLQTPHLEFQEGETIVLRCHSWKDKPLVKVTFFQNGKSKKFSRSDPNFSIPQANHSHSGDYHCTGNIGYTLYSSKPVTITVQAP

Substance: huIgG1 (antibody)
- Kd [1]: 5.8 µM
- Kd [2]: 0.000345 µM
- Kd [3]: 4.5 µM
